According to article PMC11183071 (Communications Biology, 2024):

Legend:
[1] = molecular target: T1, Clostridium perfringens enterotoxin with C-terminal decahistidine tag (CpE-His10) (Clostridium perfringens, UniProt P01558 1-319); assay: BLI; details: both partners purified
T1 sequence: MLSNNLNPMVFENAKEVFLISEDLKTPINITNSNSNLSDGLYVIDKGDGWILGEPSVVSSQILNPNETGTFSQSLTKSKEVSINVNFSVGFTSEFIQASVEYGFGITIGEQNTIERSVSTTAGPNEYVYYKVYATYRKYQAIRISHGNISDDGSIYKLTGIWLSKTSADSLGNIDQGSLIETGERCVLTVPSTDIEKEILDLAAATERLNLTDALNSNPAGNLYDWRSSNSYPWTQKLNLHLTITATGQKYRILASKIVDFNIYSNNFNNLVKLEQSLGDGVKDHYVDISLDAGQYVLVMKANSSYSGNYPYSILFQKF

[2] = molecular target: T2, pre-formed non-detergent hsCLDN-4/cCpE-His10 complex (hsCLDN-4 in amphipol A8-35 or in nanodiscs) (Homo sapiens CLDN4; Clostridium …); assay: BLI; details: both partners purified
T2 chain 1: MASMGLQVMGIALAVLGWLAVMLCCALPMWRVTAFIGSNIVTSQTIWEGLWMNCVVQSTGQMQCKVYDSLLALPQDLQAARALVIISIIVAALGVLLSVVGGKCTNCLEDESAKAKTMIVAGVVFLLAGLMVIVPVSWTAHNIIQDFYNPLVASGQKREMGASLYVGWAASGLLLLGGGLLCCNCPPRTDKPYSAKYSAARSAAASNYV
T2 chain 2: not shown

[3] = molecular target: T3, C-terminal domain of Clostridium perfringens enterotoxin with decahistidine tag (cCpE-His10) (Clostridium perfringens, UniProt P01558); assay: BLI; details: both partners purified
T3 construct: source: insect cells, purified (NiNTA, eluted with imidazole); not shown: His10, C-terminal, kept

[4] = molecular target: T4, pre-formed hsCLDN-3-Biotin/CpE-His10 complex (Homo sapiens CLDN3; Clostridium …, UniProt O15551;P01558); assay: BLI; details: both partners purified
T4 construct: source: pre-formed from the purified proteins (same method as the cCpE complexes)

[5] = molecular target: T5, hsCLDN-4/cCpE complex (tagless proteins) (Homo sapiens CLDN4; Clostridium …)
T5 chain 1: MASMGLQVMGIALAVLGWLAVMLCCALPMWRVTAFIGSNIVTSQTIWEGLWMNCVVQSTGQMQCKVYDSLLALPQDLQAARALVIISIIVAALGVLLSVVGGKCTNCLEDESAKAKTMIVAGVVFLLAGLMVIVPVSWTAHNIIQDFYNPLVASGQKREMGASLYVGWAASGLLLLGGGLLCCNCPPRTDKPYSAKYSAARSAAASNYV
T5 chain 2: not shown

[6] = molecular target: C-terminal domain of Clostridium perfringens enterotoxin (cCpE), tagless (Clostridium perfringens, UniProt P01558)

B1: human claudin-3, biotinylated (hsCLDN-3-Biotin) (natural protein)
chain: MSMGLEITGTALAVLGWLGTIVCCALPMWRVSAFIGSNIITSQNIWEGLWMNCVVQSTGQMQCKVYDSLLALPQDLQAARALIVVAILLAAFGLLVALVGAQCTNCVQDDTAKAKITIVAGVLFLLAALLTLVPVSWSANTIIRDFYNPVVPEAQKREMGAGLYVGWAAAALQLLGGALLCCSCPPREKKYTATKVVYSAPRSTGPGASLGTGYDRKDYV
modifications: biotin (NHS-PEG4-Biotin) on the N-terminal amine
With B1 the Kd [1] was 77.6 ± 0.9 nM.

B2: COP-1 (CpE Obstructing Protein 1), synthetic antibody fragment (Fab, V domains shown)
VH: EVQLVESGGGLVQPGGSLRLSCAASGFNFSSSYIHWVRQAPGKGLEWVASISSSSGSTSYADSVKGRFTISADTSKNTAYLQMNSLRAEDTAVYYCARWFHPWWWWEYLFRGAIDYWGQGTLVTVSS
VL: DIQMTQSPSSLSASVGDRVTITCRASQSVSSAVAWYQQKPGKAPKLLIYSASSLYSGVPSRFSGSRSGTDFTLTISSLQPEDFATYYCQQSSSSLITFGQGTKVEIK
notes: also called sFab
B2 was tested, and the Kd [2] was under 100 nM, the binding result [3] was “no binding (tested: 0–750 nM COP-1)” and the binding result [4] was “no binding (tested: 250 nM COP-1)”.

B3: mouse claudin-3, biotinylated (mmCLDN-3-Biotin) (natural protein)
chain: MSMGLEITGTSLAVLGWLCTIVCCALPMWRVSAFIGSSIITAQITWEGLWMNCVVQSTGQMQCKMYDSLLALPQDLQAARALIVVSILLAAFGLLVALVGAQCTNCVQDETAKAKITIVAGVLFLLAALLTLVPVSWSANTIIRDFYNPLVPEAQKREMGAGLYVGWAAAALQLLGGALLCCSCPPRDKYAPTKILYSAPRSTGPGTGTGTAYDRKDYV
modifications: biotin (NHS-PEG4-Biotin) on the N-terminal amine
With B3 the Kd [1] was 16.1 ± 0.2 nM.

B4: mouse claudin-4, biotinylated (mmCLDN-4-Biotin) (natural protein)
chain: MASMGLQVLGISLAVLGWLGIILSCALPMWRVTAFIGSNIVTAQTSWEGLWMNCVVQSTGQMQCKMYDSMLALPQDLQAARALMVISIIVGALGMLLSVVGGKCTNCMEDETVKAKIMITAGAVFIVASMLIMVPVSWTAHNVIRDFYNPMVASGQKREMGASLYVGWAASGLLLLGGGLLCCSCPPRSNDKPYSAKYSAARSVPASNYV
modifications: biotin (NHS-PEG4-Biotin) on the N-terminal amine
B4 showed a Kd [1] of 17.9 ± 0.2 nM.

B5: human claudin-4, biotinylated (hsCLDN-4-Biotin) (natural protein)
chain: MASMGLQVMGIALAVLGWLAVMLCCALPMWRVTAFIGSNIVTSQTIWEGLWMNCVVQSTGQMQCKVYDSLLALPQDLQAARALVIISIIVAALGVLLSVVGGKCTNCLEDESAKAKTMIVAGVVFLLAGLMVIVPVSWTAHNIIQDFYNPLVASGQKREMGASLYVGWAASGLLLLGGGLLCCNCPPRTDKPYSAKYSAARSAAASNYV
modifications: biotin (NHS-PEG4-Biotin) on the N-terminal amine
B5 showed a Kd [1] of 7.3 ± 0.2 nM.

B6: human claudin-9, biotinylated (hsCLDN-9-Biotin) (natural protein)
chain: MASTGLELLGMTLAVLGWLGTLVSCALPLWKVTAFIGNSIVVAQVVWEGLWMSCVVQSTGQMQCKVYDSLLALPQDLQAARALCVIALLLALLGLLVAITGAQCTTCVEDEGAKARIVLTAGVILLLAGILVLIPVCWTAHAIIQDFYNPLVAEALKRELGASLYLGWAAAALLMLGGGLLCCTCPPPQVERPRGPRLGYSIPSRSGASGLDKRDYV
modifications: biotin (NHS-PEG4-Biotin) on the N-terminal amine
B6 gave a Kd [1] of 10.5 ± 0.2 nM.

B7: COP-3 (antibody, V domains shown)
VH: EVQLVESGGGLVQPGGSLRLSCAASGFNFYSSSIHWVRQAPGKGLEWVAYISSYSGYTYYADSVKGRFTISADTSKNTAYLQMNSLRAEDTAVYYCARGYGYFDYNFSVGYALDYWGQGTLVTVSS
VL: DIQMTQSPSSLSASVGDRVTITCRASQSVSSAVAWYQQKPGKAPKLLIYSASSLYSGVPSRFSGSRSGTDFTLTISSLQPEDFATYYCQQSHPWYYPITFGQGTKVEIK
B7: binds [5]; binds [6].
